Values belong to the molecule of their own block, whether it stands above or below them.
How the values were obtained:
[1] = biological target: SisLac, Phosphotriesterase-Like Lactonase from Sulfolobus islandicus strain M.16.4 (Sulfolobus islandicus strain M.16.4); assay: dynamic light scattering; room temperature, 30 µL of purified protein at 2.5 mg/mL in activity buffer (HEPES 50 mM pH 8, NaCl 150 mM, CoCl2 0.2 mM), 633 nm
[2] = biological target: SisLac, Phosphotriesterase-Like Lactonase from Sulfolobus islandicus strain M.16.4 (Sulfolobus islandicus strain M.16.4); assay: SEC-MALS; KW803 column (Shodex), room temperature (25°C), 0.5 ml/min, activity buffer (HEPES 50 mM, NaCl 150 mM, CoCl2 0.2 mM) with pH adjusted to 7.3; static and quasi-elastic light scattering, refractometry
[3] = biological target: the molecule itself; assay: as above

stoichiometry N [1]: 2
stoichiometry N [2]: 2
Molecule: SisLac, Phosphotriesterase-Like Lactonase from Sulfolobus islandicus strain M.16.4 (enzyme)

B1: SsoPox, Phosphotriesterase-Like Lactonase from Sulfolobus solfataricus (enzyme)
chain: MRIPLVGKDSIESKDIGFTLIHEHLRVFSEAVRQQWPHLYNEDEEFRNAVNEVKRAMQFGVKTIVDPTVMGLGRDIRFMEKVVKATGINLVAGTGIYIYIDLPFYFLNRSIDEIADLFIHDIKEGIQGTLNKAGFVKIAADEPGITKDVEKVIRAAAIANKETKVPIITHSNAHNNTGLEQQRILTEEGVDPGKILIGHLGDTDNIDYIKKIADKGSFIGLDRYGLDLFLPVDKRNETTLRLIKDGYSDKIMISHDYCCTIDWGTAKPEYKPKLAPRWSITLIFEDTIPFLKRNGVNEEVIATIFKENPKKFFS
notes: SsoPox, Phosphotriesterase-Like Lactonase of Sulfolobus solfataricus (strain MT4, GenBank AAW47234.1); made from the plasmid pET22b-SsoPox; Plasmid pET22b-SsoPox (GeneArt); also called wt SsoPox; source: E. coli BL21(DE3)-pGro7/GroEL, purified (70°C heat step, ammonium sulfate precipitation, size exclusion chromatography)
stoichiometry N [3]: 2
